Results published in publication PMC6108569.

Biological target: OphAΔC18
Assay: crystal structure; proteins from the dimer fractions of gel filtration chromatography, incubated with SAM, SAH or sinefungin before crystallization; hanging drop vapor diffusion unless otherwise specified; homodimer in the crystal

Substance: OphAΔC18 (enzyme)
- stoichiometry N: 2
